Reference: paper PMC5841360

Biological target: mycGluA2 (recombinant) (UniProt P19491)
Test: co-IP with flag antibody, myc-GluA2 blot
Conditions: reference: wild type; sites Y421,Y466,Y482

## flag-cortactin (recombinant) (from UniProt Q60598) Y421F/Y466F/Y482F (TYM)
  binding against the reference: stronger
